Positions count from the first letter of the chain named.
B1: PR007295 (antibody, human IgG1, V domains shown)
VH: EVQLVESGGGLVKPGGSLRLSCAASGFTFSDYYMSWIRQAPGKGLEWVSYISNNGSTIYYADSVKGRFTISRDNAKNSLYLQMNSLRAEDTAVYYCARVRPGGSGNYWDWFDPWGQGTMVTVSS
notes: HCAb, heavy chain only, human IgG1 Fc; also called R1016P147A09
B2: PR007300 (antibody, human IgG1, V domains shown)
VH: B1 VH with A23T, A24T, S35N, I37V, M119P
notes: HCAb, heavy chain only, human IgG1 Fc; also called R1016P156E05
B3: PR007297 (antibody, human IgG1, V domains shown)
VH: B1 VH with N53R, N54S, M119L
notes: HCAb, heavy chain only, human IgG1 Fc; also called R1016P149F10
B4: PR007291 (antibody, human IgG1, V domains shown)
VH: B1 VH with A23V, A24T, S35N, L45Q, N53G, M119P
notes: HCAb, heavy chain only, human IgG1 Fc; also called R1016P145C07
B5: PR007286 (antibody, human IgG1, V domains shown)
VH: EVQLVESGGGLVKPGGSLRLSCAASGFTFSDYYMSWIRQAPGKGLEWVSYISSSGSTIYYADSVKGRFTISRDNAKNSLYLQMNSLRAEDTAVYYCARVKPVAGTWDWFDPWGQGTPVTVSS
notes: HCAb, heavy chain only, human IgG1 Fc; also called R1016P142D03
B6: PR007135 (bispecific antibody, human IgG1, kappa)
light: DIQMTQSPSTLSASVGDRVTVTCRASQSIYIWLAWYQQKPGKAPNLLIYKASSLETGVPSRFSGSGSGTEFTLTISSLQPDDFATYYCQQYYGSSRTFGQGTKVEIKRTVAAPSVFIFPPSDEQLKSGTASVVCLLNNFYPREAKVQWKVDNALQSGNSQESVTEQDSKDSTYSLSSTLTLSKADYEKHKVYACEVTHQGLSSPVTKSFNRGEC
heavy: EVQLVESGGGLVQPGGSLRLSCAASGFTFSSYWMSWVRQAPGKGLEWVANIKQEGSEKYYVDSVKGRFTISRDNAKNSLYLQMNSLRAEDTAVYYCARDRAVAGAFDIWGQGTMVTVSSASTKGPSVFPLAPSSKSTSGGTAALGCLVKDYFPEPVTVSWNSGALTSGVHTFPAVLQSSGLYSLSSVVTVPSSSLGTQTYICNVNHKPSNTKVDKKVEPKSCDKTHTCPPCPAPEAAGAPSVFLFPPKPKDTLMISRTPEVTCVVVDVSHEDPEVKFNWYVDGVEVHNAKTKPREEQYNSTYRVVSVLTVLHQDWLNGKEYKCKVSNKALPAPIEKTISKAKGQPREPQVYTLPPSREEMTKNQVSLTCLVKGFYPSDIAVEWESNGQPENNYKTTPPVLDSDGSFFLYSKLTVDKSRWQQGNVFSCSVMHEALHNHYTQKSLSLSPGGGSGGSEVQLVESGGGLVKPGGSLRLSCAASGFTFSDYYMSWFRQAPGKGLEWVSYISGSGSIIDYADSVKGRFTISRDNAKNSLYLQMNSLRAEDTAVYYCSREREAVAGTLDFDYWGQGTLVTVSS
notes: PD-L1x4-1BB IgG-VH: PR000265 + VH of PR007288 at heavy-chain C-terminus
B7: PR007142 (bispecific antibody, human IgG1, kappa)
light: B6 light
heavy: EVQLVESGGGLVQPGGSLRLSCAASGFTFSSYWMSWVRQAPGKGLEWVANIKQEGSEKYYVDSVKGRFTISRDNAKNSLYLQMNSLRAEDTAVYYCARDRAVAGAFDIWGQGTMVTVSSASTKGPSVFPLAPSSKSTSGGTAALGCLVKDYFPEPVTVSWNSGALTSGVHTFPAVLQSSGLYSLSSVVTVPSSSLGTQTYICNVNHKPSNTKVDKKVEPKSCDKTHTCPPCPAPEAAGAPSVFLFPPKPKDTLMISRTPEVTCVVVDVSHEDPEVKFNWYVDGVEVHNAKTKPREEQYNSTYRVVSVLTVLHQDWLNGKEYKCKVSNKALPAPIEKTISKAKGQPREPQVYTLPPSREEMTKNQVSLTCLVKGFYPSDIAVEWESNGQPENNYKTTPPVLDSDGSFFLYSKLTVDKSRWQQGNVFSCSVMHEALHNHYTQKSLSLSPGGGSGGSEVQLVESGGGLVKPGGSLRLSCAASGFTFSDYYMSWIRQAPGKGLEWVSYISNNGSTIYYADSVKGRFTISRDNAKNSLYLQMNSLRAEDTAVYYCARVRPGGSGNYWDWFDPWGQGTMVTVSS
notes: PD-L1x4-1BB IgG-VH: PR000265 + VH of PR007295 at heavy-chain C-terminus
B8: PR007138 (bispecific antibody, human IgG1, kappa)
light: B6 light
heavy: B7 heavy with A477V, A478T, S489N, L499Q, N507G, M573P
notes: PD-L1x4-1BB IgG-VH: PR000265 + VH of PR007291 at heavy-chain C-terminus
B9: PR007145 (bispecific antibody, human IgG1, kappa)
light: B6 light
heavy: B7 heavy with N507R, N508S, M573L
notes: PD-L1x4-1BB IgG-VH: PR000265 + VH of PR007297 at heavy-chain C-terminus
B10: PR007139 (bispecific antibody, human IgG1, kappa)
light: B6 light
heavy: B6 heavy with F491I, G507S, I511T, S551A, A556E, F563Y, Y565N
notes: PD-L1x4-1BB IgG-VH: PR000265 + VH of PR007292 at heavy-chain C-terminus
B11: PR007146 (bispecific antibody, human IgG1, kappa)
light: B6 light
heavy: B6 heavy with F491V, G507S, I511T, Y534F, Q536E, S551A, A556E, Y565N
notes: PD-L1x4-1BB IgG-VH: PR000265 + VH of PR007298 at heavy-chain C-terminus
B12: PR007137 (bispecific antibody, human IgG1, kappa)
light: B6 light
heavy: B6 heavy with L465V, K467Q, G470R, G507S, S510T, I511T, S551A, A556E, L571P
notes: PD-L1x4-1BB IgG-VH: PR000265 + VH of PR007290 at heavy-chain C-terminus
B13: PR007149 (bispecific antibody, human IgG1, kappa)
light: B6 light
heavy: B7 heavy with A477T, A478T, S489N, I491V, M573P
notes: PD-L1x4-1BB IgG-VH: PR000265 + VH of PR007300 at heavy-chain C-terminus
B14: PR007141 (bispecific antibody, human IgG1, kappa)
light: B6 light
heavy: B6 heavy with A477V, S510T, I511T, S551A, A556P, Y565N
notes: PD-L1x4-1BB IgG-VH: PR000265 + VH of PR007294 at heavy-chain C-terminus
B15: PR007143 (bispecific antibody, human IgG1, kappa)
light: B6 light
heavy: B6 heavy with A477V, S510T, I511T, S551A, Y565N, L571P
notes: PD-L1x4-1BB IgG-VH: PR000265 + VH of PR007296 at heavy-chain C-terminus
B16: PR007296 (antibody, human IgG1, V domains shown)
VH: EVQLVESGGGLVKPGGSLRLSCVASGFTFSDYYMSWFRQAPGKGLEWVSYISGSGTTIDYADSVKGRFTISRDNAKNSLYLQMNSLRAEDTAVYYCAREREAVAGTLDFDNWGQGTPVTVSS
notes: HCAb, heavy chain only, human IgG1 Fc; also called R1016P147B10
B17: PR007299 (antibody, human IgG1, V domains shown)
VH: EVQLVESGGGLVKPGGSLRLSCAASGFTFSDYQMSWLRQAPGKGLEWVSYISSSGRTIYYADSVKGRFTISRDNAKNSVSLQMNSLRAEDTAVYYCAREGRFFPGQGTPVTVSS
notes: HCAb, heavy chain only, human IgG1 Fc; also called R1016P149H12
B18: PR001758 (antibody, human IgG1, V domains shown)
VH: EVQLLESGGGLVQLGGSLRLSCAASGFTFSRYAMTWVRQAPEKGLEWVSSISGSGDDTYYGDSVKGRFTISRDNSQNTVYLQMNSLRAEDTAVYFCAKEKAGTTGDYYYNVDVWGQGTTVTVSS
notes: HCAb, heavy chain only, human IgG1 Fc; also called 1016P0010B11

Columns and labels:
[1] = molecular target: T1, human 4-1BB on CHO-K1 cells (human, UniProt Q07011 24-255); assay: FACS, CHO-K1/hu 4-1BB cells
T1 construct: whole, on cells; also called CHO-K1/hu 4-1BB; CHO-K1/hu4-1BB
T1 sequence (Q07011 24-255): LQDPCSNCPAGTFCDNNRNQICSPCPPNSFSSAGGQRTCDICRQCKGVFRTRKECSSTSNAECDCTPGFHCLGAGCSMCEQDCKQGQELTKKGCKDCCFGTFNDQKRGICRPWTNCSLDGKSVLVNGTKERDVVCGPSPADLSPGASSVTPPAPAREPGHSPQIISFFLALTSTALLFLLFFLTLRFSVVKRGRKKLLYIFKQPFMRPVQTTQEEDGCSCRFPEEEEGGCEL

[2] = molecular target: 4-1BB on HEK293/4-1BB/NF-kb reporter cells; assay: cell-based or functional assay
[3] = molecular target: T1, human 4-1BB on CHO-K1 cells; assay: FACS, CHO-K1/hu4-1BB cells
Method: The binding abilities of the antibody molecules to a CHO-K1 cell strain highly expressing human 4-1BB (CHO-K1/hu4-1BB, GenScript, M00538) and a CHO-K1 cell strain highly expressing cynomolgus monkey 4-1BB (CHO-K1/cyno4-1BB, GenScript, M00569) were determined by flow cytometry FACS. Specifically, the cells were digested and resuspended in a complete medium, and the cell density was adjusted to 2×10⁶ cells/mL. Then, the cells were seeded in a 96-well V-bottom plate (Corning, #3894) at 100 μL/well (2×10⁵ cells/well) and centrifuged at 4° C. for 5 min, and the supernatant was discarded. Then, the serially diluted antibody molecules were added to the 96-well plate at 100 μL/well, and the mixtures were well mixed. The antibody molecules might serially diluted 3-fold from the highest final concentration 200 nM to obtain a total of 12 concentrations. hIgG1 iso (CrownBio, #C0001) was used as an isotype control. The cells were incubated at 4° C. for 1 h away from light. Then, the cells in each well were rinsed twice with 100 μL of pre-cooled FACS buffer (PBS buffer containing 0.5% BSA) and centrifuged at 500 g at 4° C. for 5 min, and then the supernatant was discarded. […] Then, the cells in each well were then rinsed twice with 200 μL of pre-cooled FACS buffer and centrifuged at 500 g at 4° C. for 5 min, and then the supernatant was discarded. Finally, a pre-cooled FACS buffer was added at 200 μL/well to resuspend the cells. The fluorescence signal values were read using a BD FACS CANTOII flow cytometer.

[4] = molecular target: T2, human PD-L1 on CHO-K1 cells (human, UniProt Q9NZQ7 19-290); assay: FACS, CHO-K1/hPD-L1 cells
T2 construct: whole, on cells; also called CHO-K1/hPDL1; CHO-K1/hPD-L1
T2 sequence (Q9NZQ7 19-290): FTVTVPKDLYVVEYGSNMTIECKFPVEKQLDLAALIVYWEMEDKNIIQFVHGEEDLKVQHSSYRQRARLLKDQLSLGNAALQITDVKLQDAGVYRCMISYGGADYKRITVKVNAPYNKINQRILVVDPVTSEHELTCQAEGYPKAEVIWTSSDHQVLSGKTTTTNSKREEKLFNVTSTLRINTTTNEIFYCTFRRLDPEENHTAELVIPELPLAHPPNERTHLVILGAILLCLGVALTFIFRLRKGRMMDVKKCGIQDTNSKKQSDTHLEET

[5] = molecular target: T3, histidine-labeled human 4-1BB protein (human, UniProt Q07011 24-186); assay: BLI Octet RED96, AHC sensor, his-tagged antigen
T3 construct: also called Human 4-1BB protein antigen (histidine-labeled); human 4-1BB protein and his tag (Acrobiosystem, #41B-H5227); not shown: histidine tag
T3 sequence (Q07011 24-186): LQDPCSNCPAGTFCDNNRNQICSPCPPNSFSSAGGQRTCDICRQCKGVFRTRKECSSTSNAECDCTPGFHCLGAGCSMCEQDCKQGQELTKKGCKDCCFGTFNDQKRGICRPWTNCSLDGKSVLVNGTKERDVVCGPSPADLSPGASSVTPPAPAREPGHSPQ
Method: (§1) Specifically, human 4-1BB protein and his tag (Acrobiosystem, #41B-H5227), or cynomolgus monkey 4-1BB protein and his tag (Acrobiosystem, #41B-052H4), were diluted to 400 nM with PBS buffer (pH 7.4) containing 0.1% (w/w) BSA and 0.02% (v/v) Tween 20, and incubated with the AHC sensor. A 40 nM 4-1BB antibody was incubated with the AHC sensor loaded with human 4-1BB protein or monkey 4-1BB protein at 30° C. for 3 min. The reaction mixture was incubated in PBS buffer (pH 7.4) containing 0.1% (v/w) BSA and 0.02% (v/v) Tween 20 at 30° C. for another 5 min The binding and separation signals between the 4-1BB antibody and 4-1BB protein were recorded by Octet Red 96 in real time. The affinity and association and dissociation constants were determined by Octet using software.

[6] = molecular target: T4, histidine-labeled cynomolgus monkey 4-1BB protein (cynomolgus monkey); assay: BLI Octet RED96, AHC sensor, his-tagged antigen
T4 construct: also called Monkey 4-1BB protein antigen (histidine-labeled); cynomolgus monkey 4-1BB protein and his tag (Acrobiosystem, #41B-052H4)
Method: as §1

Row | Binder | binding result [1] | EC50, NF-kb luciferase reporter, CHO-K1/CD32b crosslinking [2] [nM] | binding result [3] | binding result [4] | other results
1 | B1 | binds | < 0.8 | – | – | –
2 | B2 | binds | < 0.8 | – | – | –
3 | B3 | binds | < 0.8 | – | – | –
4 | B4 | binds | < 0.8 | – | – | –
5 | B5 | binds | < 0.8 | – | – | –
6 | B6 | – | – | binds | binds | –
7 | B7 | – | – | binds | binds | –
8 | B8 | – | – | binds | binds | –
9 | B9 | – | – | binds | binds | –
10 | B10 | – | – | binds | binds | –
11 | B11 | – | – | binds | binds | –
12 | B12 | – | – | binds | binds | –
13 | B13 | – | – | binds | binds | –
14 | B14 | – | – | binds | binds | –
15 | B15 | – | – | binds | binds | –
16 | B16 | binds | < 0.8 | – | – | –
17 | B17 | binds | < 0.8 | – | – | –
18 | B18 | – | < 0.8 | – | – | EC50 [1]: < 0.3 nM; Kd [5]: 25.6 nM; Response [5]: 0.326; koff [5]: 0.00578 s⁻¹; kon [5]: 226000 M⁻¹ s⁻¹; Kd [6]: 7.41 nM; Response [6]: 0.274; koff [6]: 0.00112 s⁻¹; kon [6]: 151000 M⁻¹ s⁻¹

From patent US20230242658A1 (published 2023)
